Reference: the supplement of paper PMC12042874
± gives the uncertainty stated by the source.

Assay: amyloid nucleation score (Sup35N fusion, yeast selection) (log enrichment); library NNK3; higher = more nucleation; inactive = no reads after selection
Procedure, shortened: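 Using DiMSum, nucleation scores were taken as the log enrichment of output over input reads, centred on the mode score of non-aggregating sequences. The input and output reads came from Illumina sequencing of plasmid inserts, with sequences under 100 input reads excluded. The yeast were psi-negative, expressed Sup35N fused to peptides of 20 random codons, were induced with 100 μM copper sulfate for 24 hours, and were grown 7 days at 30°C on medium lacking adenine and uracil.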

Amyloid nucleation score, 0.921 ± 0.23:
TRIFVCVFVCTTPTMHAPIW

Amyloid nucleation score, -0.88 ± 1.1:
PCLYLGIFARTKMHPTNDCM

Amyloid nucleation score, 0.957 ± 0.14:
TQFISLSGGRTHLSGFLVFG

Amyloid nucleation score, 0.803 ± 0.25:
SPLRRCMCSFDDAKWWMCGE

Amyloid nucleation score, 1.18 ± 0.16:
SVNVHCIREPWVADWTCCRL

Amyloid nucleation score, 2.11 ± 0.097:
RLLLSGSSVAICCGQLGLGF

Amyloid nucleation score, -0.091 ± 0.8:
IYVTIEFASIVCSCWESLDR

Amyloid nucleation score, 2.66 ± 0.063:
SISIFHNCF

Amyloid nucleation score, 1.24 ± 0.16:
PFLTTKIVQVAGDLVNMFYE

Amyloid nucleation score, -0.217 ± 0.66:
REDWRLFNCTTFSAPSSC

Amyloid nucleation score, 1.78 ± 0.11:
IYSLYRCPFAVCLSSNWSCF

Amyloid nucleation score, 1.14 ± 0.13:
SRCIFIIVIVSGSYGFSVSN

Amyloid nucleation score, 0.816 ± 0.24:
FVWMLRWMGRDD

Amyloid nucleation score, 0.145 ± 0.53:
KVGSKVLEIFINTHYNWYCR

Amyloid nucleation score, 2.17 ± 0.087:
ASRAESVVGSFFCFFL

Amyloid nucleation score, 1.69 ± 0.089:
YVNTDVIVHENVFLLNSHNS

Amyloid nucleation score, 1.44 ± 0.14:
IAPVFWITLYHNFTSRIDRF

Amyloid nucleation score, 0.682 ± 0.18:
LTGRISIARFEVDLGFGCPS

Amyloid nucleation score, 0.469 ± 0.21:
ISVVFSGKNSLKEMRMKMAG

Amyloid nucleation score, 0.069 ± 0.47:
AFVGRWYCGFVASVIFEMQG

Amyloid nucleation score, 2.09 ± 0.091:
IYGTANSKFSCIIYR

Amyloid nucleation score, 2 ± 0.089:
LNRWCCFSVITMCLMANFDA

Amyloid nucleation score, 0.893 ± 0.17:
LLYNTMSLSSSWEY

Amyloid nucleation score, -0.096 ± 0.66:
PGHFLECRKW

Amyloid nucleation score, 0.541 ± 0.34:
ALPYCSLVGCYVCKCRLMWL

Amyloid nucleation score, 0.828 ± 0.12:
TKNRVYQWMSLSGM

Amyloid nucleation score, 1.39 ± 0.14:
PQRWLSPSYSRIVRM

Amyloid nucleation score, 3.36 ± 0.06:
GVNWFSIQFNIWVLSRDADL

Amyloid nucleation score, 0.014 ± 0.71:
RYNPFRIQELSMLFVLERTL

Amyloid nucleation score, 0.523 ± 0.24:
SCCGRKMRPGRFEIIDKFCI

Amyloid nucleation score, 1.14 ± 0.12:
ISVAWWGCSTAYRRCKD

Amyloid nucleation score, 1.85 ± 0.077:
GDFLNCAFLTKIFEHQNNFW

Amyloid nucleation score, inactive:
MTNLCRRVGKKFPNRSHSGY
SRILRLRVSSSHVERYFKLF
MYGHIYHFRINTLWGVNL
CFAHSLMR
NLGYALICQSRVGGTFLVNS
GYKDIDLTSERGK
GIYSI
FELPMHTGV
YCTGLIFPAFSNLEDSTLLF
YLLCF
SVSLAHFGSRKLVFSG
EPVFCMWLDMGLGPNDCRMA
YCGLVHVSHLGVGREIGRRV
SADLFVSEYKGIRMTIGNVF
GEIANSQVRKWLIEMYSPVV
TMGGNVIV
LMSLWLLLWGTEESALDMAD
MTYVGGSVQYGRSLRHRIDR
VFPFIRNKV
RCQATWWNIIFFAIGDCDLL
LNSYSLNWRRCMGVQHSLYP
SSEVYQALPPMS
CFGRLLRTAILNLCNLFFAL
TWDMSLT
RTISGYSPSIVGQRDSRGFL
MRGWLRLSELCKGVLIVGFA
LRVVISLVIYMRSSTRICSV
DIWFGSSKKSVMRV
SVKNWPNVN
NFGQTGRCYKRLRFC
GSLMRVLLFEYLMDTCLWIV
RIPKTKRYHPCYVRLRRSVY
RWLVT
AKNSKKSMLSVNGDRNDQSF
SFFEYLPTQPTR
LARDYSFATHSGLRRKSLKQ
CIVKTLQ
LRSCSSWRRLFKRIVQRHWV
STWTG
SGAFYAHHHLSRLLTDEDIS
RRCMFIFSYWPRRVLATVLK
SYRCMSESRFYYFLSCHARR
GLLNSD
CIHSRTNNIRMTNCVRLGLG
TGMVCNLTWVLYLMLMNRTF
VLCPFRLFMSNTYLTFAMSC
RVACFQIHGK
NLRSISF
KRYNNIAYFVYLLFSLGVTT
LRYLIYTNYFRLFAWLNSCK
VAKLKRTWTVWLVIYSRKSW
SYSFEYNHSDKFVSLYYMDI
YNGFSLIRFILFAHG
LSFLTHCRHSWVRVRDILWA
FLEWEGFRVCIENHMELLRF
VRVTLWYQTNMGIFEGHSRN
TTSVIAGLW
SRYLLADSFFRASAVWDVSE
VKGQCHYYLLSQLSGSSPVI
LSIIRKVADRGDPSDLYKMV
SDSGLKKV
DSLSDLLYSFKFKG
HMFMRNLEMRVGHSFHRLRD
CDRLYSNLLRVAAMAPKASW
SKPLFMTNNVTMGTIWPHMG
IYLASSLNRILISEQSILPG
LWVSLFVSDVTRLFCLGFVT
SSDDFSWTIRMRRSEFTSHG
IYVRAFRWFMNKVTSTAWTI
FWLHLVPYRFPIVGLCLRG
RNSSNGSVHKQVFAVELKVP
TLSFCWWRFMLVCRGVGGGR
LWLVIN
YSLNGAY
CVGQAPGVSLGFQTYQLILW
PGSDWDMLIMKGMKKRYLDY
RCREFERKLALSLQSVGS
AFYVVLTNTVYVGWLQE
SRRVRAYIRVFGLCKGFAEC
DRHVSQFSVWDW
CLPWHWMLNYFGYKNVKS
RTPPLRTQLESKSIFKEMAR
ENLLISKRCINGMA
CIPCTVTFG
NRCTCAV
FNTFVPRKYH
CWHCVIDAGFLSQYVRVFYS
IFLCI
VGLFRESPWEV
LVSDEPNLGFDN
LHPLYRFSANSSKDLFTSRL
VRLCRGS
SLGSMAAVLSPSTAERPANL
FNWCWPISARAGELNLECWS
TIACS
VMKHHALGLEEWPQYTSYAW
LSSVKCSKWSIFMYMRQYIW
RSVFTTSCH
RISAFWLYTACQFGSDLDTC
CSVTIGLIDTSPAIVSIPSD
LNMIHSVA
VVRFFLRTRTEGGYTWVLK
NRAVHKSRWHRMRTFKDERR
SIDNLSPRPTWSGIMFSHCL
ALLKD
MFGWRNSTLAVKAGSDTRLP
YGEEEVE
YQVHWFSNYTTAWMNYVSTV
QRNSCLDFMK
QNVKIRRGICEEFYRRVQLD
KYLVALVRVRQSNLHS
CMHGKGHSTFINNKDPVKVR
IIAPRLY
SGFFSVAGIGWYTIYFCIYR
YWIAIFTLHFLLDPRFRNSM
IFPFFVVFGFDTYAGI
DFGKNSLWSSREDNLKYWFM

Amyloid nucleation score, 1.69 ± 0.068:
RFHVLINCFSAAGRGNPGSR

Amyloid nucleation score, 1.36 ± 0.1:
YRMSR

Amyloid nucleation score, 0.49 ± 0.53:
PSSSYPKSLRINMAFSFLMC

Amyloid nucleation score, -0.464 ± 0.8:
YTSLCASVNGGLTIS

Amyloid nucleation score, 2.3 ± 0.075:
HFSMHITMLEFLTFNSARRV

Amyloid nucleation score, 1.26 ± 0.093:
LVMACCNIMKSATMIILYTM

Amyloid nucleation score, 1.11 ± 0.17:
AEIVCICV

Amyloid nucleation score, 1.35 ± 0.088:
TFGAVTCMSRCVKSSYNLKW

Amyloid nucleation score, 2.92 ± 0.069:
VSPMVALCCFCLKEMNFGVH

Amyloid nucleation score, 1.24 ± 0.14:
RFSWWRW

Amyloid nucleation score, 1.9 ± 0.07:
VNLSFNCWFDVVCVSSRF
